The values below are quoted from earlier work in article PMC10320286.

In the data set the target is IL-18BP (Homo sapiens) (UniProt O95998).
Sequence of IL-18BP (Homo sapiens) (O95998 31-194): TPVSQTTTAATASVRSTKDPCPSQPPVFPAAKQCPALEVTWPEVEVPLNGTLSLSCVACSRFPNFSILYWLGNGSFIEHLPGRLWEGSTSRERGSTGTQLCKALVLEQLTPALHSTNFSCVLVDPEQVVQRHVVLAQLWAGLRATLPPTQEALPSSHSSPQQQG

Sequence of IL-18 (Q14116 37-193): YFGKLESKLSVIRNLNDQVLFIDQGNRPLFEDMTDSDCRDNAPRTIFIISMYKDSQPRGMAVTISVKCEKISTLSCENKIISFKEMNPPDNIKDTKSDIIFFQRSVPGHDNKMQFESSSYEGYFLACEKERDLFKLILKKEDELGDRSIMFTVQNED

Take IL-18 (from UniProt Q14116): the Kd – broadly, a measure of binding affinity in units of concentration – was 0.038 nM.
